Earlier results on 1 substance are cited in article PMC4871753.

pKd: −log10 of the molar value.

The pKd is the negative decadic logarithm of the Kd, by convention in mol/L.

The target of the data set is RXFP1 (Homo sapiens) (UniProt Q9HBX9).
UniProt Q9HBX9, sequence (Q9HBX9 whole entry): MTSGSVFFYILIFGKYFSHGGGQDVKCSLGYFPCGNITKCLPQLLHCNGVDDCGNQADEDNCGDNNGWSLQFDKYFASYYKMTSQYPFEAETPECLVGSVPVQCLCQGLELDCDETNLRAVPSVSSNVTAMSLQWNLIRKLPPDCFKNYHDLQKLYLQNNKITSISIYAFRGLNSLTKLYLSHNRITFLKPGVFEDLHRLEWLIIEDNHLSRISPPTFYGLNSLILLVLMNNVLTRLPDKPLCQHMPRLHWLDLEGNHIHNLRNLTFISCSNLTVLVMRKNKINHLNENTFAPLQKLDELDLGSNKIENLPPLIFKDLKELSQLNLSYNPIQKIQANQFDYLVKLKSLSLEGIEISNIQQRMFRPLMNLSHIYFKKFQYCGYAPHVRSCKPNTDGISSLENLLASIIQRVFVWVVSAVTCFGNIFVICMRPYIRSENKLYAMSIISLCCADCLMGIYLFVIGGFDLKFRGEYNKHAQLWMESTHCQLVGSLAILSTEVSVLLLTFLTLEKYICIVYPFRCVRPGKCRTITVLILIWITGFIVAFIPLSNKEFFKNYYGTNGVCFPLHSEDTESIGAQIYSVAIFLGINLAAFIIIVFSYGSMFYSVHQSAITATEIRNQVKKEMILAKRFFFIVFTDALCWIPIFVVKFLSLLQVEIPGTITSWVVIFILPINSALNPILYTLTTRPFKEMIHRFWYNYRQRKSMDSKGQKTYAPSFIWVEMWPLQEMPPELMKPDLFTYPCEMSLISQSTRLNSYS

Regarding “NLuc-conjugated relaxin (from UniProt P04090)”, the negative-log Kd (pKd) was 8.95.
